Results on one molecule are retold here after US20250049939A1 (TUBULIS, published 2025).

For orientation: Kd means a measure of binding affinity in units of concentration.

For one assay, the target named is T1, PDGFRα on Ba/F3 cells (UniProt P16234 24-1089, limits assumed).
T1 construct: whole, on cells
The assay can be described thus: flow cytometry, cell surface binding to Ba/F3 pMIY cells expressing PDGFRα, MFI ratio normalized to IgG1, mean ± s.d. of n=3.

For another assay, the target named is T2, CSF1R on Ba/F3 cells (UniProt P07333 20-972, limits assumed).
T2 construct: whole, on cells
Nature of the assay: flow cytometry, cell surface binding to Ba/F3 pMIY cells expressing CSF-1R, MFI ratio normalized to IgG1, mean ± s.d. of n=3. For orientation: Flow cytometry measures light scatter and fluorescence of single cells or particles in a stream.

Assay [1] deals with T3, human CD64 (high affinity Fc receptor, FCGR1) on cells (human, UniProt P12314 16-374).
T3 construct: whole, on cells; also called hCD64; human FCGR1
Nature of the assay: flow cytometry, cell surface binding to Ba/F3-pMIY cells expressing CD64, specific MFI, mean ± s.d. of n=3.

The next assay has as its target T4, VEGFR-2 on Ba/F3 cells (UniProt P35968 20-1356, limits assumed).
T4 construct: whole, on cells
Nature of the assay: flow cytometry, cell surface binding to Ba/F3 pMIY cells expressing VEGFR, MFI ratio normalized to IgG1, mean ± s.d. of n=3.

In assay [2] the target is T5, recombinant human FLT3 protein (human, UniProt P36888 27-541).
T5 construct: also called recombinant FLT3 protein; human recombinant FLT3 protein (10445-H08H, Sino Biological)
T5 sequence: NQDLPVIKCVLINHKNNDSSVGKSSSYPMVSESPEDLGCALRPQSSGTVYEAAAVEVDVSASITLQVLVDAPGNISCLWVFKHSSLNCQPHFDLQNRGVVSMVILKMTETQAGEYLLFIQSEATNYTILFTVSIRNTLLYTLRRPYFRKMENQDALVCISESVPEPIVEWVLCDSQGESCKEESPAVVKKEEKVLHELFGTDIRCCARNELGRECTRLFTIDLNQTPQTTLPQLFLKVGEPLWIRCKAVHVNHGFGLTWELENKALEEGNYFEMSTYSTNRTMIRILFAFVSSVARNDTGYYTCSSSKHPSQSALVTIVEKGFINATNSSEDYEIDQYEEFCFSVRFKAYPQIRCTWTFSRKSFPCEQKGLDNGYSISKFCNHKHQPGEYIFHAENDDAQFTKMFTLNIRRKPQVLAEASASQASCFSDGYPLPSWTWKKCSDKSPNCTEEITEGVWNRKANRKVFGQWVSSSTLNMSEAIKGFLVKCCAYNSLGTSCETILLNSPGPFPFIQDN
Nature of the assay: ELISA with recombinant human FLT3 coated to the plate (results of FIG. 13 summarized). The protocol:
Maxisorp plates were coated with human recombinant FLT3 protein (10445-H08H, Sino Biological). […] For detection, Attophos Fluorescent Substrate System (S1000, Promega) was applied. The fluorescence was read with excitation of 405 nm and emission at 500-550 nm. The calculation of the dissociation constant KD was performed using GraphPad Prism version 9.4.0.
The 12 clones were subsequently analysed in ELISA assays (FIG. 13). Therefore, recombinant human FLT3 was coated on plates and incubated with the antibody candidates. […] Mean±s.d. of n=3 biological replicates.
In general terms: In an ELISA, binding on a coated surface is turned into a signal by an enzyme label.

The target in assay [3] is T6, human wildtype FLT3 expressed on Ba/F3 cells (human, UniProt P36888 27-993).
T6 construct: also called hFLT3 wt; Ba/F3-FLT3
T6 sequence: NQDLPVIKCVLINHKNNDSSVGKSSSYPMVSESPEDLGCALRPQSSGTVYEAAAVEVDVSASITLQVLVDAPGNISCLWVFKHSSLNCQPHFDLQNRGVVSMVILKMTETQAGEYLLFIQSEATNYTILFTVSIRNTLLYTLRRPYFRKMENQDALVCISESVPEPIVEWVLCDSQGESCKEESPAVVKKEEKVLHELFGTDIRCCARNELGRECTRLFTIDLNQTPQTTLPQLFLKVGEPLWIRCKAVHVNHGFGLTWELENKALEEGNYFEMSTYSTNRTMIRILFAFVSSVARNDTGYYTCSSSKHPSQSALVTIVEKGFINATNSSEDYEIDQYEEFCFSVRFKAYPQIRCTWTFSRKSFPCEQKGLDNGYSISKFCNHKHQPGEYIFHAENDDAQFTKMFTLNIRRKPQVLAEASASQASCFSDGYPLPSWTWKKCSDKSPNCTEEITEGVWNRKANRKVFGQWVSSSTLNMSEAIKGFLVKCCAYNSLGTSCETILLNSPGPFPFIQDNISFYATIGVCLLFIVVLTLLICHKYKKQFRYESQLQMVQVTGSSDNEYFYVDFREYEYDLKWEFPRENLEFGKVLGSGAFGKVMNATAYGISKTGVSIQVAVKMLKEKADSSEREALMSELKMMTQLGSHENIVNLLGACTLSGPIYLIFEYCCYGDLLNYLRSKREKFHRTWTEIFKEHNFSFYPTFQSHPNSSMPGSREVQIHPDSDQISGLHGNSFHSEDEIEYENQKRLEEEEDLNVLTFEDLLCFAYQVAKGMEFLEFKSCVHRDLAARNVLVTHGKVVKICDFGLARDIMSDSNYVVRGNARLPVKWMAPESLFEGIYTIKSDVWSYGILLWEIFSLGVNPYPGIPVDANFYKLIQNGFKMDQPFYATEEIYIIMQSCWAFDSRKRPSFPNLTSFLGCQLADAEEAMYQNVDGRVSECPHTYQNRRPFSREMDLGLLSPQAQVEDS
Nature of the assay: flow cytometry, cell surface binding to Ba/F3 cells expressing human FLT3 (results of FIG. 14 summarized).

Another assay has as its target T7, c-KIT on Ba/F3 cells (UniProt P10721 26-976, limits assumed).
T7 construct: whole, on cells
Nature of the assay: flow cytometry, cell surface binding to Ba/F3 pMIY cells expressing c-KIT, MFI ratio normalized to IgG1, mean ± s.d. of n=3.

T4 sequence (P35968 20-1356 limits assumed): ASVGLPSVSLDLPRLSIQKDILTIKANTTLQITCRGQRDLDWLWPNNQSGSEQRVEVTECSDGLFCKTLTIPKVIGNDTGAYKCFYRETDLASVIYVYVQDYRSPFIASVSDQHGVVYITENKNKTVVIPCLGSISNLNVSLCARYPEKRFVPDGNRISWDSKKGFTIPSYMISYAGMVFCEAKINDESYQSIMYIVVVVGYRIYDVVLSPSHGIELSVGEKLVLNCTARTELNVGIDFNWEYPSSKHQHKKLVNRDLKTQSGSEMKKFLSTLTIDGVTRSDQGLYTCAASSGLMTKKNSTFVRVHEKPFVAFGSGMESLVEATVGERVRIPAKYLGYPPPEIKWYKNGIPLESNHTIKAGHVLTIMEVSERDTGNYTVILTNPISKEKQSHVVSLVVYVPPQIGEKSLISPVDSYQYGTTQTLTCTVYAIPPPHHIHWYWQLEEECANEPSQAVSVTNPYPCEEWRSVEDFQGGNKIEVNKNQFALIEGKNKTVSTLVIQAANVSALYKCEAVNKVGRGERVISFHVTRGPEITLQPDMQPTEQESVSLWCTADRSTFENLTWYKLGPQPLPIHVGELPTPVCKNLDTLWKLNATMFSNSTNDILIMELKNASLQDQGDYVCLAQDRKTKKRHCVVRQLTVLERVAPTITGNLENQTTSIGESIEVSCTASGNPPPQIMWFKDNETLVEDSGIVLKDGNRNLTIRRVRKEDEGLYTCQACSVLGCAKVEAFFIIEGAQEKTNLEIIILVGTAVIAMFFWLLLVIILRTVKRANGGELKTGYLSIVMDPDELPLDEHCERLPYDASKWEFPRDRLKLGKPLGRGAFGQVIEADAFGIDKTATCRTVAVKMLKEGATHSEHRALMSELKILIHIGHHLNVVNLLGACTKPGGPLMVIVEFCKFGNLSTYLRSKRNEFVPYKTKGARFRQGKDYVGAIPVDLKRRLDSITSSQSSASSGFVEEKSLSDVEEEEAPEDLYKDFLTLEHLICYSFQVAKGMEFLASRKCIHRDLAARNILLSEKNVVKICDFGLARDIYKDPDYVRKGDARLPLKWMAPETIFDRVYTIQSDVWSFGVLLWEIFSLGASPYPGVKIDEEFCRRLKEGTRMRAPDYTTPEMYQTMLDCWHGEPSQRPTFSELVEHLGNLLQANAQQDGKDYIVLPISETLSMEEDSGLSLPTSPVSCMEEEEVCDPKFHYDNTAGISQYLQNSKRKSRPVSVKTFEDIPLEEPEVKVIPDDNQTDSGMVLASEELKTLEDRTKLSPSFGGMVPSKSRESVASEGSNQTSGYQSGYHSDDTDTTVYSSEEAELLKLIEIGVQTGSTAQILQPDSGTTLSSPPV
T7 sequence (P10721 26-976 limits assumed): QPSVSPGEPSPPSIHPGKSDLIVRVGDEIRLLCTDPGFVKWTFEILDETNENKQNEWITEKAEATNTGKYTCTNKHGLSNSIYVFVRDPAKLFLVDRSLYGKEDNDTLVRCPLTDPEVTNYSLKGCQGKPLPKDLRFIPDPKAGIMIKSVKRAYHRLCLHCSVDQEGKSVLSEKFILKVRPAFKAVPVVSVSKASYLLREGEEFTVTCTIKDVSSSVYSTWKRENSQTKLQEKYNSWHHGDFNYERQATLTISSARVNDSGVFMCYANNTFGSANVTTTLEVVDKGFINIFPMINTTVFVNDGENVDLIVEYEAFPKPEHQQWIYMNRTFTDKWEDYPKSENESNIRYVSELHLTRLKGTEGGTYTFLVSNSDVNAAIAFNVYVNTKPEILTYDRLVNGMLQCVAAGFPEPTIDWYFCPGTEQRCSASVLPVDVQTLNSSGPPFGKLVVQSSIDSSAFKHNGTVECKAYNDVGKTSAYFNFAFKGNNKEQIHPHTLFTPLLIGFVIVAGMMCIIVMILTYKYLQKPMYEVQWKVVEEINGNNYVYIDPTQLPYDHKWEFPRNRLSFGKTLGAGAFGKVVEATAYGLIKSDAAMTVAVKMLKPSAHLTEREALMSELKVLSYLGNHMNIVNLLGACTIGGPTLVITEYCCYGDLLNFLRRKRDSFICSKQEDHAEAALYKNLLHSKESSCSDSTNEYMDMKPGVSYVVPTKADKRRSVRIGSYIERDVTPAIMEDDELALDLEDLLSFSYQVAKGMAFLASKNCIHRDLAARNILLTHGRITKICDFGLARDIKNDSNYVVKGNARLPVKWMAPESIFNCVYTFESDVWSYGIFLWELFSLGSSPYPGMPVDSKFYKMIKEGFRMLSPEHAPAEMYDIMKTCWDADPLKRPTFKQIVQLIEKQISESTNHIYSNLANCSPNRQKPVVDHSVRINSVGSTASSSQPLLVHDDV
T1 sequence (P16234 24-1089 limits assumed): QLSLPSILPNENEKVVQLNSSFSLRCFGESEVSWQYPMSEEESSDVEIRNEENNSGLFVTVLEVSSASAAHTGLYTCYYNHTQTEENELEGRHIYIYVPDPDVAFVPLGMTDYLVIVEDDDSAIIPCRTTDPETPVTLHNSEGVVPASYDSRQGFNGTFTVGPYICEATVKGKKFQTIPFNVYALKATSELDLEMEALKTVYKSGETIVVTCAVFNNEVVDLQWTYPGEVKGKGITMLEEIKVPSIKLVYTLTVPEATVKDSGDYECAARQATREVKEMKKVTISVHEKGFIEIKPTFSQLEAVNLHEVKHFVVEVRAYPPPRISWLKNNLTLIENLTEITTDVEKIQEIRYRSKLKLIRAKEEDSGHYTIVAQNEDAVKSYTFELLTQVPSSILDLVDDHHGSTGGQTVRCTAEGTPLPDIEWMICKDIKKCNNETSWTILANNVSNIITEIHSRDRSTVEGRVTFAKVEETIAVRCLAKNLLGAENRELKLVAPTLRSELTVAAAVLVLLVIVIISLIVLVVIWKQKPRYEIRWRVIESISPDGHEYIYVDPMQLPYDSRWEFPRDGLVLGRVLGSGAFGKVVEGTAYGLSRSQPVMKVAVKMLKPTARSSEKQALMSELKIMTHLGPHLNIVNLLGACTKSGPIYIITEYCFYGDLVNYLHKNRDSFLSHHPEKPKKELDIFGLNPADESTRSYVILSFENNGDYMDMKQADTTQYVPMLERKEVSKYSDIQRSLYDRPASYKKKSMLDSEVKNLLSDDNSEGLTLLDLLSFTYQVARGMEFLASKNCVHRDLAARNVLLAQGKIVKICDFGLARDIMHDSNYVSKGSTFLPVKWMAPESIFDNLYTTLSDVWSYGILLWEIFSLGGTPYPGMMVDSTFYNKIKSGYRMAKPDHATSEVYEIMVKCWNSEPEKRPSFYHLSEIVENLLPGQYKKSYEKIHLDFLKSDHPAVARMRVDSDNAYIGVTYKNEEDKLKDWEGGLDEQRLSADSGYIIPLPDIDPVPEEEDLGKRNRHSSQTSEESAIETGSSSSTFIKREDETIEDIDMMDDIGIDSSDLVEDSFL
T3 sequence (P12314 16-374): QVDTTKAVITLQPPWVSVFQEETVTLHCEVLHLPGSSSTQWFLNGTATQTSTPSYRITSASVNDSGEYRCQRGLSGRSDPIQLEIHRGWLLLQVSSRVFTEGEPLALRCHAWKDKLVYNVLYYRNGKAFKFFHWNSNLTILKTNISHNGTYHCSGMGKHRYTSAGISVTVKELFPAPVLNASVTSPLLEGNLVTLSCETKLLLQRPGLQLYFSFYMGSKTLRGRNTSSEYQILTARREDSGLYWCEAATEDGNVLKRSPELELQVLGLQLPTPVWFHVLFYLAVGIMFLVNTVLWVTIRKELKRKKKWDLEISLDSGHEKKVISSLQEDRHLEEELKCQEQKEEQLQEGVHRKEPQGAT
T2 sequence (P07333 20-972 limits assumed): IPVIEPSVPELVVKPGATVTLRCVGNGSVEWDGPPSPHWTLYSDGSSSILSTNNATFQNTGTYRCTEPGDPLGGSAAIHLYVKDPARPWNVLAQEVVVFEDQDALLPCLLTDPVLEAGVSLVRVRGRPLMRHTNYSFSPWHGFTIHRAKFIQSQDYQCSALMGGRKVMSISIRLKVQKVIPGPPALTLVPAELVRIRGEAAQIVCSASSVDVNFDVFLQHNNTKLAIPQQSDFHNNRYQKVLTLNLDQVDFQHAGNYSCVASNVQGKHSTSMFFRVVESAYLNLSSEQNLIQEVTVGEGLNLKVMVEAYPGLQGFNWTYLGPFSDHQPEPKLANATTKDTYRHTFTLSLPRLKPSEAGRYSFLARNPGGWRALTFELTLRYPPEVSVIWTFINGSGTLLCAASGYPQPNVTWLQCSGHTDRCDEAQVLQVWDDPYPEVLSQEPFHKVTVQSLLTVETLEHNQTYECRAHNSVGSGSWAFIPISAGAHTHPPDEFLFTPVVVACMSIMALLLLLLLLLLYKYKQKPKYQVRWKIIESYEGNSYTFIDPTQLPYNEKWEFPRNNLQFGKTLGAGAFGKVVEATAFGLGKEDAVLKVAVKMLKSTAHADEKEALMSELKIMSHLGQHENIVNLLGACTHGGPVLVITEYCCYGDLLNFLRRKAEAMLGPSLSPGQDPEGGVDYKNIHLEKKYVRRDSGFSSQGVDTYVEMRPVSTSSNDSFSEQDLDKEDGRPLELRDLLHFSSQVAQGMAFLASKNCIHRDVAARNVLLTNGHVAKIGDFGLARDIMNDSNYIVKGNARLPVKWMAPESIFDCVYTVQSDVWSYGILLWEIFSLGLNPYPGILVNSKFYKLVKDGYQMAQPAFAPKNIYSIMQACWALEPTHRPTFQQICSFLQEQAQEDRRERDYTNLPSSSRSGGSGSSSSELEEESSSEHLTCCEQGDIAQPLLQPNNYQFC

B1: Humanized clone 3 of 20D9 (VH3 + VK1) (antibody, human IgG1, kappa)
heavy: not shown
light: DIQMTQSPSVLSASVGDRVTINCRASQNINKELNWYQQKLGEAPKLLIYNTNNLQSGVPSRFSGSGSGTDYTLTISSLQPEDVATYFCFQHKSWPLTFGSGTKLEIKRTVAAPSVFIFPPSDEQLKSGTASVVCLLNNFYPREAKVQWKVDNALQSGNSQESVTEQDSKDSTYSLSSTLTLSKADYEKHKVYACEVTHQGLSSPVTKSFNRGEC
notes: also called candidate #3; #3 mab
Regarding B1, the binding result with PDGFRα on Ba/F3 cells is given as “no binding”; with CSF1R on Ba/F3 cells, “no binding”; in assay [1] it was “binds”; with VEGFR-2 on Ba/F3 cells, “no binding”; with c-KIT on Ba/F3 cells, “no binding”. Besides, the Kd in assay [2] is 0.0113 µg/mL. Also, the “Binding to human FLT3 (MFI ratio to IgG1 control)” value in assay [3] came out at 95.3.
